Ends that are not written are not given here.
Tests used:
Immunoglobulin G (IgG) = assay: Purification from Effluent II+III, IgG mass balance; type: binding, human; details: 1 ml Eff. II+III, 4° C.
Summary of the method: (§1)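 Peptide-ligand columns were loaded with 1 ml Cohn Effluent II+III (20% v/v ethanol, 20-25 mg/ml hSA, ~1 mg/ml A1PI, other plasma proteins at 0.1-1 mg/ml) using a 10 min residence time at 4° C. Step elutions at 865 μl/min used 1M NaCl, 3M NaCl, then 2% acetic acid, and protein mass balances were tracked across fractions.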

A1PI [1] = molecular target: T1, A1PI (Homo sapiens, UniProt P01009); assay: Purification of A1PI from Effluent II+III on peptide column, A1PI mass balance; type: binding; details: A1PI, 1 ml Eff. II+III, 4° C.
T1 construct: Human plasma is currently the only approved source of therapeutic AlPI
T1 sequence (P01009 25-418): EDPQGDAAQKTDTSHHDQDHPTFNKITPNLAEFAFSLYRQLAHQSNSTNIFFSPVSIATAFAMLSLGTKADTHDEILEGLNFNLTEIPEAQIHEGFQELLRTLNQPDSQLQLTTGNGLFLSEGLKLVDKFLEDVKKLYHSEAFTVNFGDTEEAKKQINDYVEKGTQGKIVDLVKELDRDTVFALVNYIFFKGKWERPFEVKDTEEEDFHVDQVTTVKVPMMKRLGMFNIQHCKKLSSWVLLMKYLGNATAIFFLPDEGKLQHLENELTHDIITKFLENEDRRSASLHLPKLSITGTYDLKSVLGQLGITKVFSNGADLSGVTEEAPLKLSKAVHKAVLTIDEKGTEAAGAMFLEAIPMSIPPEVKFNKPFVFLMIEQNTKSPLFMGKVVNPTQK
Summary of the method: as §1

[2] = molecular target: T2, apolipoprotein alpha-1 (Apo A-1) (Homo sapiens, UniProt P02647); assay: Purification from Effluent II+III, Apo A-1 mass balance; type: binding; details: 1 ml Eff. II+III, 4° C.
T2 construct: Eff; II+III is a process intermediate in the Cohn plasma fractionation process; tissue Bayer Corporation (Clayton, N.C.); host or cells: plasma fraction: Cohn Effluent II+III
T2 sequence (P02647 19-267): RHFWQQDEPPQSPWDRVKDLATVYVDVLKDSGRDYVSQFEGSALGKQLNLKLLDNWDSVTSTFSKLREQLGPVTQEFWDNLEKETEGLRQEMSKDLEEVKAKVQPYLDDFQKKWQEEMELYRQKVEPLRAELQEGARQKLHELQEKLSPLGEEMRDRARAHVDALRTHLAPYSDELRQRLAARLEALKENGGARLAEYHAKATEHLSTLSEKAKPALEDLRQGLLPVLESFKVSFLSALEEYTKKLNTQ
Summary of the method: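 Feed: 1 ml Eff. II+III (20% EtOH, 20-25 mg/ml hSA, ~1 mg/ml A1PI). 10 min residence, then 865 μl/min; steps 1M NaCl / 3M NaCl / 2% acetic acid; 4° C. Mass balance per fraction.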

A1PI [3] = molecular target: T1, A1PI; assay: A1PI purification from 5 mg hSA + 1 mg A1PI on peptide column, A1PI mass balance; type: binding; details: for Mass AlPI Eluted in Acid Eluate: nephelometry; for Mass Protein per Eluate Fraction, 1M NaCl / Mass Protein per Eluate Fraction, 2% Ac. Acid / Mass Protein per Eluate Fraction, 3M NaCl / Mass Protein per Eluate Fraction, Flow / Percent Eluted by Fraction, 1M NaCl / Percent Eluted by Fraction, 2% Ac. Acid / Percent Eluted by Fraction, 3M NaCl / Percent Eluted by Fraction, Flow: A1PI, 5 mg hSA + 1 mg A1PI; for Mass Protein per Eluate Fraction, 1M NaCl / Mass Protein per Eluate Fraction, 2% Ac. Acid / Mass Protein per Eluate Fraction, 3M NaCl / Mass Protein per Eluate Fraction, Flow: * Below detection limit; for Percent Eluted by Fraction, 1M NaCl / Percent Eluted by Fraction, 2% Ac. Acid / Percent Eluted by Fraction, 3M NaCl / Percent Eluted by Fraction, Flow: relative to total eluted
Summary of the method: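 Mass balance by immunonephelometry of fractions from step elutions (1M NaCl, 3M NaCl, 2% acetic acid, neutralised with Tris) at 865 μl/min. Sample was a mixture of 1 mg A1PI and 5 mg hSA held 10 min on peptide-derivatised Toyopearl columns (0.1 mmole/g) at 4 °C or 20 °C.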

Immunoglobulin A (IgA) = assay: Purification from Effluent II+III, IgA mass balance; type: binding, human; details: 1 ml Eff. II+III, 4° C.
Summary of the method: as §1

A1PI [4] = molecular target: T1, A1PI; assay: Capture and elution of active A1PI with 2M urea buffer (elastase inhibition activity assay and immunonephelometry); type: binding; details: 4° C.
A1PI [5] = molecular target: T1, A1PI; assay: A1PI binding on peptide-resin column, injection of 1 mg A1PI in equilibration buffer; details: 1 mg A1PI in equilibration buffer
Summary of the method: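 Percent of total eluted A1PI per fraction (flowthrough, NaCl steps, 2% acetic acid) determined by A280 integration or immunonephelometry. Columns of peptide-derivatized A-Totda-Toyopearl resin (0.1 mmole/g) received 1 mg A1PI at 4 °C or 20 °C, flow 865 or 523 μl/min.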

[6] = * as in Tables 4, 5 (below detection limit)

PYWIVR
Percent Eluted by Fraction, 1M NaCl (Immunoglobulin G (IgG)): 10%
Percent Eluted by Fraction, 2% Acetic Acid (Immunoglobulin G (IgG)): 0%
Percent Eluted by Fraction, 3M NaCl (Immunoglobulin G (IgG)): 0%
Percent Eluted by Fraction, Flow (Immunoglobulin G (IgG)): 90%
Mass Protein per Eluate Fraction, 1M NaCl (Immunoglobulin G (IgG); [6]): 0.03 mg
Mass Protein per Eluate Fraction, Flow (Immunoglobulin G (IgG); [6]): 0.30 mg
Percent Eluted by Fraction, 1M NaCl (A1PI [1]): 16%
Percent Eluted by Fraction, 2% Acetic Acid (A1PI [1]): 29%
Percent Eluted by Fraction, 3M NaCl (A1PI [1]): 0%
Percent Eluted by Fraction, Flow (A1PI [1]): 56%
Mass Protein per Eluate Fraction, 1M NaCl (A1PI [1]; [6]): 0.15 mg
Mass Protein per Eluate Fraction, 2% Acetic Acid (A1PI [1]; [6]): 0.28 mg
Mass Protein per Eluate Fraction, Flow (A1PI [1]; [6]): 0.55 mg
Percent Eluted by Fraction, 1M NaCl [2]: 60%
Percent Eluted by Fraction, 2% Acetic Acid [2]: 0%
Percent Eluted by Fraction, 3M NaCl [2]: 0%
Percent Eluted by Fraction, Flow [2]: 40%
Mass Protein per Eluate Fraction, 1M NaCl [2, 6]: 0.34 mg
Mass Protein per Eluate Fraction, Flow [2, 6]: 0.22 mg
Mass AlPI Eluted in Acid Eluate (A1PI [3]; 250 μg AlPI injected with 5 mg hSA, 20° C.): 0.09 mg
Mass AlPI Eluted in Acid Eluate (A1PI [3]; 500 μg AlPI injected with 5 mg hSA, 20° C.): 0.21 mg
Mass AlPI Eluted in Acid Eluate (A1PI [3]; 1000 μg AlPI injected with 5 mg hSA, 20° C.): 0.30 mg
Mass Protein per Eluate Fraction, 1M NaCl (A1PI [3]; 4° C.): 0.31 mg
Mass Protein per Eluate Fraction, 2% Ac. Acid (A1PI [3]; 4° C.): 0.19 mg
Mass Protein per Eluate Fraction, 3M NaCl (A1PI [3]; 4° C.): 0.02 mg
Mass Protein per Eluate Fraction, Flow (A1PI [3]; 4° C.): 0.19 mg
Percent Eluted by Fraction, 1M NaCl (A1PI [3]; 4° C.): 44%
Percent Eluted by Fraction, 2% Ac. Acid (A1PI [3]; 4° C.): 27%
Percent Eluted by Fraction, 3M NaCl (A1PI [3]; 4° C.): 3%
Percent Eluted by Fraction, Flow (A1PI [3]; 4° C.): 27%
Mass Protein per Eluate Fraction, 1M NaCl (A1PI [3]; 20° C.): 0.32 mg
Mass Protein per Eluate Fraction, 2% Ac. Acid (A1PI [3]; 20° C.): 0.38 mg
Mass Protein per Eluate Fraction, 3M NaCl (A1PI [3]; 20° C.): 0.02 mg
Mass Protein per Eluate Fraction, Flow (A1PI [3]; 20° C.): 0.07 mg
Percent Eluted by Fraction, 1M NaCl (A1PI [3]; 20° C.): 41%
Percent Eluted by Fraction, 2% Ac. Acid (A1PI [3]; 20° C.): 48%
Percent Eluted by Fraction, 3M NaCl (A1PI [3]; 20° C.): 2%
Percent Eluted by Fraction, Flow (A1PI [3]; 20° C.): 9%
Percent Eluted by Fraction, 1M NaCl (Immunoglobulin A (IgA)): 57%
Percent Eluted by Fraction, 2% Acetic Acid (Immunoglobulin A (IgA)): 22%
Percent Eluted by Fraction, 3M NaCl (Immunoglobulin A (IgA)): 0%
Percent Eluted by Fraction, Flow (Immunoglobulin A (IgA)): 21%
Mass Protein per Eluate Fraction, 1M NaCl (Immunoglobulin A (IgA); [6]): 0.22 mg
Mass Protein per Eluate Fraction, 2% Acetic Acid (Immunoglobulin A (IgA); [6]): 0.08 mg
Mass Protein per Eluate Fraction, Flow (Immunoglobulin A (IgA); [6]): 0.08 mg
Mass A1PI in Urea Eluate (mg), Activity (A1PI [4]; 1 mg A1PI, eluted with 2M urea, pH 6, elastase inhibition activity assay): 0.37 mg
Mass A1PI in Urea Eluate (mg), Nephelometry (A1PI [4]; 1 mg A1PI, eluted with 2M urea, pH 6, immunonephelometry): 0.49 mg
Specific Activity (A1PI [4]; mass of A1PI by activity assay relative to immunonephelometry, urea eluate): 0.75 mg/mg
Percent A1PI Eluted by Fraction Based on Absorbance at 280 nm, 1M NaCl (A1PI [5]; 4° C.): 74%
Percent A1PI Eluted by Fraction Based on Absorbance at 280 nm, 2% Acetic Acid (A1PI [5]; 4° C.): 26%
Percent A1PI Eluted by Fraction Based on Absorbance at 280 nm, Flowthrough (A1PI [5]; 4° C.): 0%
Percent A1PI Eluted by Fraction, 1M NaCl (A1PI [5]; 20° C.): 55%
Percent A1PI Eluted by Fraction, 2% Acetic Acid (A1PI [5]; 20° C.): 45%
Percent A1PI Eluted by Fraction, Flowthrough (A1PI [5]; 20° C.): 0%

From patent publication US5985836A, “Alpha-1 proteinase inhibitor binding peptides” (Bayer Corporation, priority 1998, dated 1999)
